The test system of assay [1] is platelet-rich-plasma (PRP). Put plainly: Ristocetin-induced aggregation of platelet-rich plasma (scFv). Type of assay: cell-based, human. To be noted: scFv 25 μg/ml, 100% = ristocetin treatment. As for the experimental part: The effect of Y1 (scFv) on aggregation of platelet-rich-plasma (PRP) was tested at various concentrations of Y1. PRP was pre-incubated with Y1 scFv, Y17 scFv, or a control sTM-1cFv for 4 min at 37° C. before being exposed to ristocetin, an inducer of platelet agglutination and aggregation. A reversible inhibitory effect was observed when scFv was added to PRP prior to the addition of ristocetin, and it was dose dependent.
Blood was collected into a tube containing 3.8% sodium citrate. Platelet-rich plasma was prepared by centrifugation at 250×g for 10 minutes.
For platelet aggregation studies, platelet rich plasma (PRP) and washed platelets were stirred at 500 rpm at 37° C. in whole blood Lumiaggregometer (Chronolog, Havertown, Pa.). The difference in light transmission through the platelet suspension and suspending medium was taken as 100% aggregation. The effect of Y1 on platelet aggregation was evaluated by addition of different concentration of Y1 before the addition of agonist, and the effect was recorded for four minutes.

Assay [2] concerns RP-HPLC KG-1 membrane fraction. Put plainly: Western blot with Y1 on SDS-PAGE reducing gels, KG-1 membrane fraction after enzyme treatment. Type of assay: binding, human. To be noted: O-Sialo glycoprotein endopeptidase, 30′ at 37° C. From the text:
(§1) Y1 ligand was further characterized using enzymatic treatments with proteases, glycanases, and […]; Western blotting with Y1, anti-CD42 antibodies, anti-CD162 antibodies and 181, immunoprecipitation using Y1 and anti-CD162 antibodies; FACS analysis using Y1 anti-CD162 antibodies; and sequencing.
(§2) The table below summarizes the biochemical experiments preformed to characterize and localize the Y1 binding site on KG-1 cells.
(§3) The nitrocellulose membrane was blocked using 5% skim milk for one hour at room temperature. The membrane was then washed 3 times for 5 minutes each with 0.05% Tween 20 in PBS at room temperature. The membrane was incubated with 5 μg/ml Y1-biotin (or 181-biotin) in 2% skim milk in PBS for one hour at room temperature. The membrane was then washed 3 times for 5 minutes each with cold 0.05% Tween 20 in PBS in the cold room (about 4 to about 10° C.). The membrane was then incubated in the cold room with a 1:1000 dilution of SAV-HRP (streptavidin-HRP) (at a final concentration of […]) in 2% skim milk, 0.05% Tween. The dilution was carried out at room temperature (about 25° C.), then the diluted SAV-HRP was cooled on ice for 10-15 minutes before use. The incubation was carried out for 1 hour with gentle shaking. After the incubation with SAV-HRP, the membrane was washed, as above. […]

In assay [3] the target is T1, Glycocalicin (GC) (Homo sapiens, UniProt P07359).
T1 construct: glycocalicin (soluble, extracellular fragment of GPIbα); from tissue; host or cells: human platelets
Put plainly: Western blot with Y1 on SDS-PAGE reducing gels, glycocalicin after enzyme treatment. Type of assay: binding. To be noted: O-Sialo glycoprotein endopeptidase, 30′ at 37° C.
Description: as §1, §2, §3

Assay [4] concerns KG-1 cells. Put plainly: Binding competition experiments on KG-1 cells (monomer, dimer, Y1 IgG). Also on record: species or system human. The text has this: To compare the binding of the scFv monomer (also referred to as CONY1) with the Y1 dimer, binding competition experiments were done in vitro on KG-1 cells. In addition, these experiments also compared the binding of the full Y1 IgG to the scFv Y1 monomers. To perform this study, a Y1 IgG was labeled with biotin.

In assay [5] the test system is Jurkat cells. Kind of assay: FACS binding to Jurkat cells (IgG-Y1, scFv-Y1, diabodies, triabodies). Also on record: species or system human. To be noted: 1 μg scFv-Y1 versus 5 ng IgG-Y1, two-step staining. As for the experimental part:
Binding experiments were performed to determine the level of binding of the IgG-Y1 molecule compared to the binding level of the scFv-Y1 molecule. A two-step staining procedure was employed, wherein 5 ng of IgG-Y1 were reacted with both RAJI cells (negative control, FIG. 44) and Jurkat cells (Y1 positive cells, FIG. 44). For detection, PE-labeled goat anti-human IgG was used. Similarly, 1 μg of scFv-Y1 was reacted with Jurkat cells (FIG. 44), and PE-labeled rabbit anti-scFv was used for detection.
FACS analysis was performed on Jurkat cells using a “three step staining procedure.” First, crude extracts or purified unlabeled scFv are stained, then mouse anti-myc antibodies, and finally, FITC- or PE-conjugated anti-mouse antibodies. FACS analysis requires 5-8×10^5 cells, which have been Ficoll-purified and resuspended in PBS+1% BSA. Binding was carried out for 1 hour at 4° C. After each step, cells were washed and resuspended in PBS+1% BSA. After the final staining step, cells were fixed by re-suspending in PBS, 1% BSA, 2% formaldehyde, and then read by FACS (Becton-Dickinson).
The binding of Y1-scFv was compared to that of diabodies and triabodies.

Assay [6] has as its target T2, natural human platelet derived glycocalicin (Homo sapiens, UniProt P07359).
T2 construct: glycocalicin (soluble, extracellular fragment of GPIbα); from tissue; host or cells: human platelets
Put plainly: Western blot on natural platelet glycocalicin. Type of assay: binding. To be noted: semi-purified human platelet derived glycocalicin. As for the experimental part: (§4) The DNA fragment encoding for glycocalicin (GC, amino acid 1 to amino acid 493 of GPIbα) was cloned into an IPTG inducible prokaryotic vector cassette. E. coli (BL21 DE3) cells harboring the newly constructed plasmid were grown at 37° C. to O.D. 0.7-0.8, than at 37° C. for 3 hours for in the presence of IPTG for induction.
(§5) SDS-polyacrylamide gel loaded either with semi-purified human platelet derived glycocalicin (“GC”) or with E. coli cell lysates (“total”) derived from induced and non-induced cells were analyzed. Western blot analysis was performed with biotinylated Y1-scFv, polyclonal rabbit anti-human glycocalicin antibody, commercially available mouse anti-human CD42 monoclonal antibody (SZ2 Immunotech, PM640 Serotec, HIP1 Pharmigen, AN51 DAKO), and polyclonal antibody against the N-terminus of GPIbα (Sc-7071, Santa Cruz).

The target in assay [7] is T3, recombinant bacterial derived glycocalicin (Homo sapiens, UniProt P07359).
T3 construct: glycocalicin (GC, amino acid 1 to amino acid 493 of GPIbα); made in house; host or cells: E. coli BL21 DE3, total cell lysate
Kind of assay: Western blot on E. coli recombinant glycocalicin. Conditions: E. coli cell lysates, IPTG induced. Type of assay: binding. As to the method:
as §4, §5

The source of these data is patent US20040001839A1, “Multimers - isolated molecules comprising epitopes containing sulfated moieties, antibodies to such epitopes, and uses thereof” (priority 2000, published 2004).

B1: Y1 scFv: fully human scFv clone binding platelets and AML cells; SEQ ID NO:25, heavy chain CDR3 SEQ ID NO:8 (protein, listed as Homo sapiens)
scFv: MKYLLPTAAAGLLLLAAQPAMAEVQLVESGGGVVRPGGSLRLSCAASGFTFDDYGMSWVRQAPGKGLEWVSGINWNGGSTGYADSVKGRFTISRDNAKNSLYLQMNSLRAEDTAVYYCARMRAPVIWGQGTLVTVSRGGGGSGGGGSGGGGSSELTQDPAVSVALGQTVRITCQGDSLRSYYASWYQQKPGQAPVLVIYGKNNRPSGIPDRFSGSSSGNTASLTITGAQAEDEADYYCNSRDSSGNHVVFGGGTKLTVLGAAAEQKLISEEDLNGAA
With B1, in assay [1], the “% aggregation” value worked out at 87%. For the same molecule, the “Reactivity with Y1” value is reported as “Reactivity” in assay [2] and “Enhanced” in assay [3]. The “amount bound to KG-1 cells to the same extent” value in assay [4] (FITC-labeled, without serum) was found to be 1 µg. The “competition with Y1 IgG-Biotin for binding to KG-1 cells” value in assay [4] (Y1 IgG-Biotin 50 ng, Y1 scFvs 5 μg and 10 μg) is on record as “partially competed”. In addition, in assay [5], the “more molecules needed for a level of detection similar to IgG-Y1” value is “approximately 10^3 fold”. Also, the “recognition in Western blot” value is listed as “recognized” in assay [6] and “did not recognize” in assay [7].
